Measurements as given in patent publication US20110245474A1 (PFENEX, published 2011).

Target: T1, recombinant human granulocyte colony stimulating factor receptor (GCSF-R) (R & D Systems, cat# 381GR/CF), … (human, UniProt Q99062 25-621, limits assumed, biotinylated using NHS-LC-LC-biotin (sites not given))
T1 construct: Bought reagent; also called b-GCSF-R; G-CSF receptor
T1 sequence (looked up): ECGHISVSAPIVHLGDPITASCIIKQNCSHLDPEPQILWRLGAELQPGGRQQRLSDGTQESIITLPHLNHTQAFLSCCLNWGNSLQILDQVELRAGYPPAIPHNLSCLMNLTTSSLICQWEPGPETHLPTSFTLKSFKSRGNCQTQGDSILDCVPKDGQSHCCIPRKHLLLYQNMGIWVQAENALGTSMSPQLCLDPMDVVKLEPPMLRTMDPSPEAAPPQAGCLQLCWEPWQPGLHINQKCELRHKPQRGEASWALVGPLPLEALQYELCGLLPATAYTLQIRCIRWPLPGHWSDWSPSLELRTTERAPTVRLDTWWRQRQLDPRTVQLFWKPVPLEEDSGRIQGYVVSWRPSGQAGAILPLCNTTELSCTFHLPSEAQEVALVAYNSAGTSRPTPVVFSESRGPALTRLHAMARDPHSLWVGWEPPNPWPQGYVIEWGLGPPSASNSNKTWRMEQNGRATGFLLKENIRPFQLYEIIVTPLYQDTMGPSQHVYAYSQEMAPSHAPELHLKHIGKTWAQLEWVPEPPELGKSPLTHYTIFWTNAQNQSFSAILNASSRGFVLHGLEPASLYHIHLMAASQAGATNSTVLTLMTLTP
Experiment: biolayer interferometry (Octet), biotinylated GCSF-R on streptavidin sensors, soluble lysate fractions, used to quantify the protein against a standard curve
Protocol: Soluble fractions were prepared by sonication followed by centrifugation. Normalized culture broth samples (400 μL) were sonicated with the Cell Lysis Automated Sonication System (CLASS, Scinomix) with a 24 probe tip horn. The lysates were centrifuged at 14,000×rpm for 20 minutes (4° C.) and the supernatants collected (soluble fraction). Further dilutions of soluble samples for biolayer interferometry analysis were performed in ForteBio's Sample Diluent (PN, described below).
The lyophilized recombinant human granulocyte colony stimulating factor receptor (GCSF-R) (R & D Systems, cat# 381GR/CF) was reconstituted in PBS buffer (Sigma, P3813) to 0.5 mg/mL and biotinylated using NHS-LC-LC-biotin (Pierce, 21343) according to the method described in ForteBio Technical Note: “Biotinylation of Protein for Immobilization onto Streptavidin Sensors.” The biosensors (Streptavidin High Binding FA Biosensors, ForteBio, 18-0009) were hydrated in 1× kinetics buffer (10-fold dilution of 10× Kinetics Buffer, ForteBio, 18-5032 into PBS) for at least 10 minutes. […]
The soluble fraction of the strain array samples were diluted 20-fold into 1× kinetics buffer. […] The samples were read at 200 rpm, 30° C., for 120 sec, and quantitation was calculated from a standard curve at 12, 6, 3, 1.5, 0.75, 0.375, 0.188, and in some cases as low as 0.094 μg/ml.

B1: recombinant human G-CSF protein comprising an N-terminal methionine (Met-G-CSF), produced in Pseudomonas fluorescens (ligand)
chain: MTPLGPASSLPQSFLLKCLEQVRKIQGDGAALQEKLCATYKLCHPEELVLLGHSLGIPWAPLSSCPSQALQLAGCLSQLHSGLFLYQGLLQALEGISPELGPTLDTLQLDVADFATTIWQQMEELGMAPALQPTQGAMPAFASAFQRRAGGVLVASHLQSFLEVSYRVLRHLAQP
notes: Tested as soluble fraction of P. fluorescens lysates, diluted, not purified; also called hG-CSF
Does B1 bind?
Result: binds
